Laboratory results taken from paper PMC11253593.

Legend:
[1] = biological target: eGFP-DdrI (DdrI with N-terminal fused eGFP) (Deinococcus radiodurans); assay: SEC; gel filtration of the purified protein to check homogeneity and oligomeric state; also run with cAMP and Mn2+ added (dimer formation not affected)
[2] = biological target: DdrI (DR0997), CRP family protein from Deinococcus radiodurans, untagged (Deinococcus radiodurans); assay: as above

stoichiometry N [1] | stoichiometry N [2] | Substance
2 |  | eGFP-DdrI (DdrI with N-terminal fused eGFP) (natural protein)
 | 2 | DdrI (DR0997), CRP family protein from Deinococcus radiodurans, untagged (natural protein)
